These results are taken from doi:10.1101/2021.01.14.426634 (bioRxiv, 2021).

For data set [1], the target named is Danio rerio calcium hemostasis modulator 1 (drCALHM1), full length, purified channel (Danio rerio) (UniProt E7F2J4). The data set can be described thus: cryo-EM structure.
For data set [2] the target is unchanged. Description: cryo-EM structure. This is another data set of the same source.
Data set [3] has the same target. Description: cryo-EM structure. This is another data set of the same source.
Data set [4] concerns the molecule itself. Description: cross-linking.
Data set [5] deals with the molecule itself. Description: cross-linking. This is another data set of the same source.

“And” between values parts separate entries of the source, which are not always exact repeats. Equal values may be shown once. Read-outs that look alike come from different tables or passages of the source.

As for “Danio rerio calcium hemostasis modulator 1 (drCALHM1), full length, purified channel (from UniProt E7F2J4 1-346) (natural protein)”, the stoichiometry N is 7 and 8 in data set [1]; 8 in data set [2]; 7 in data set [3].

B1: Homo sapiens CALHM1 with a 2x FLAG tag at the C-terminus, expressed in HEK293T cells (natural protein, H. sapiens, UniProt Q8IU99 1-346, looked up)
chain: MMDKFRMIFQFLQSNQESFMNGICGIMALASAQMYSAFDFNCPCLPGYNAAYSAGILLAPPLVLFLLGLVMNNNVSMLAEEWKRPLGRRAKDPAVLRYMFCSMAQRALIAPVVWVAVTLLDGKCFLCAFCTAVPVSALGNGSLAPGLPAPELARLLARVPCPEIYDGDWLLAREVAVRYLRCISQALGWSFVLLTTLLAFVVRSVRPCFTQAAFLKSKYWSHYIDIERKLFDETCTEHAKAFAKVCIQQFFEAMNHDLELGHTHGTLATAPASAAAPTTPDGAEEEREKLRGITDQGTMNRLLTSWHKCKPPLRLGQEEPPLMGNGWAGGGPRPPRKEVATYFSKV
As for B1, the “stoichiometry N” value in “cross-linking [4]” amounted to 8; in “cross-linking [5]” it was 7.
